The DeepSol protein solubility set

Experiment: soluble on expression in E. coli; label from the status in PepcDB or PDB records

Sequence	soluble on expression in E. coli
MGSDKIHHHHHHVPVRDGLQPLFVAAPLHAGGRPAAFGLKDRVMADNTTSTALLDLRGVRKTFLTPDRRERTVLEGVDFKLEEGEIVALLGKSGSGKSTLLRIMAGLIKANGGEVKYRGHLMTGPAKGISMVFQSFALFPWLTVEENVELGLEAAGIPKAEREDRANEAIDLIGLGGYESAYPKELSGGMRQRVGFARALVMRPDVLLLDEPFSALDVLTSETLREDLLELWDERKIPTKGILLVSHNIEEAVSMADRVLVFSSDPGRVRAEIRVNLPRPRDTESAAFRQIVDEVYTLMTANVRGGGVGATEQLTLGYRLPDTTPGKMAGLLETVAEAPFNGRADLPQLAEETELEDDQLFHLFEGLRVLGLARIAAGDIFVTHSGQAFVEADDAHRKELFAEALVKNIPLAAHIRRVLDERKDHRAPEDRFLQELQDYLTDDEAERVLETTITWGRYAEIFDYDYNAGVLMLPEEVVEELEAGEETRDDPGARE	not soluble
MQFFISSAILFSYAFCQSIPNVILTGEPRVVARRILNVDMKAAQQLALPDDQQHVRYQVNVVRNQENPSDSTYLTGERTPVTVYRRILRPARITFTGDGVITDSWQGTSDAVEMESWTLNRRPTIDGSFVQPTQNQQGAFH	not soluble
RVAVLVATHGNNTASSMVSVAKKLLGEGLVEGIDMPLDQSPKIVLDKLTERAKEMDMGRGLLLLVDMGSLTSFAPVISERTGIPVRSIDMVSTATVIEAVRKSNILDMELDSIYDSLKDFRGYGGYNSDDDTLDS	not soluble
MKGLILAAGRGTRLRPLTHTRPKPAIRVAGRPIIHYAVENLLEAGVREIGVVVSPETERDLKVALEGYPVRYVLQEEPQGLAHAVDVARGFLGESPFVLYLGDNLFQKGIRRFLEAFKPGVSAVIALVRVEDPRQFGVAVLEGNRVVRLLEKPKDPPSDLAVAGVYVFSPEVLEVVRGLKPSARGEYEITDAIQGLIDRGKTVVGVEVEGWWKDTGRHQDLLDANRLLLEELTPKVEGDVVESQLTGRVVVEKGAKVVRSTVIGPAHIGAGAVVEEAFVGPFTSVGPRARVVRSEVEYSLLEEEAVVEEVRLRLQECILGVRAEVKSRDGLPRAHRLILGDLSQVELA	soluble
MGSDKIHHHHHHNYENINSNPYEAPDLSADGYALGSAMNNLAGCVVSPDVNTAQFTDCLLGGPLGGYFADSNAGFTETISNFNPKDDWSRVFLKSDKIIPTLYSNLTQVKLVSQNTNDPVPYAIAQVIKVAAMHRVTDAFGPIPYSQIGANGEIATPYDSQEVTYNTFFDELNAAIATLNENSNEQLVPTADYIYKGDVKKWIRFANSLKLRLAIRIAYANPVKAQQMAEEAVNPANGGVIESNADNATWNYFETSQNPIYVATRYNQVQTSDHGGVPCLTGGDTHAAADIICYMNGYKDNRREKFFTKSEWAGQDYVGMRRGIVIPELKTTGHKYSGVNIAPTSPLYWMNAAEVAFLRAEGQAVFNFSMGGTAESFYNQGIRLSFEQWGADGVEDYLKDDVNKPTAYTDPAGTNTYQNALSNITIKWNDSADKEEKQERIIVQKWIANWQLGNEAWADFRRTGYPKLIPVKENKSGGVVDSEKGARRMPYPLDEFVSNKANVEYAIANYLHGADNMATDVWWASKK	not soluble
MELQKALKEVREQKIAPVYLLIGTELYLTELFKTTLMKELLTEEDDQFNFFSFDMEETPLSAAIAEAETIPFFGDYRLVFVENPYFLTAERKTNGVEHDVNLLLNYLESPSPTTVLVFMASYEKLDERKKITKALKKNATVVDVNPMDEKAIRQYISQTIESEGYTIRSDAFDLLLQLTDLNLSKIMGELQKLYLYALETKTITRGAVQELVPKSLEHNVFDLTNEVLSGNSEKAVQLYEDLLLQGEETIKLNAILLNQIRLFLQTKILAKMGYQQANIADTLKVHPYRVKLALQQVRRFELSRLERLYDELVENDYRMKTGQMDKELLFQLFILKLTAQAK	not soluble
MCTVSLCVSLCLWMHNETVQVAMALEFKDKWLEQFYEDDKRHRLIPSSIENALFRKLEILDAAQAESDLRIPPGNRFEHLEGNLKGWCSIRVNKQYRLIFQWVDGVALNTYLDPHKY	not soluble
NIDLDIHARENIANITNAMIELVSQDCHWLKVWFEWSASTRDEVWPLFVSTNRTNQLLVQNMFIKAIERGEVCDQHDSEHLANLFHGICYSLFVQANRFKGEAELKELVSAYLDMLCIYNREH	not soluble
ATEAHPAGGRLVLRPVRKSDAGLFAMYAGDRRVAEGTRGIPHPLPPGAAEAFVNRSTAEARSEDVWVMDGSASGLSEVLGVISLKRMDRDQSEIAYWVAPAFWNAGFASEAVRALIEANPQGSRTIFAEVFQDNPQSARVLTNCGFEYIGDAEAFSVARNARVPTWTY	not soluble
MGSSHHHHHHSSGLVPRGSSTYRDIVVKKEDGFTQIVLSTRSTEKNALNTEVIKEIVNALNSAAADDSKLVLFSAAGSVFCCGLDFGYFVKHLRNNRNTASLEMVDTIKNFVNTFIQFKKPIVVSVNGPAIGLGASILPLCDLVWANEKAWFQTPYTTFGQSPDGCSSITFPKMMGKASANEMLIAGRKLTAREACAKGLVSQVFLTGTFTQEVMIQIKELASYNPIVLEECKALVRCNIKLELEQANERECEVLRKIWSSAQGIESMLKIPLLGYKAAFPPRKTQNDQRW	soluble
MTRPVIVPFFISHQGCPHRCVFCDQERIAGRAGRLPSAAEIHSAVKTFGRGRPVEAAFYGGTFTSLPRNEQERLLAALQPLRHDGSVRSVRLSTRPDALDAETAGFLKSMGVASVELGVQSMDDQVLDVSGRGHSAADTVRAFDVLRSEGIAVGAQLMPGLPGDSRERSLDSLTRILDLKPVSLRIYPTLVVAGTRLAEFWAEGSYTPLTLADAVPLCADMLLACKRAGVPVIRLGLQPTDILERSVLAGPWHPALRQLVEGELWYRLLERLTTGLAAGTVVSVACAPARISDVVGQRRVNLSRLLERRGIVVTGVAGCPTAAPDTLTLTHAGGTVAGSLTD	not soluble
MGSDKIHHHHHHMSKVFIATANAGKAHDADIFSVSACNSFTVSCSGDGYLKVWDNKLLDNENPKDKSYSHFVHKSGLHHVDVLQAIERDAFELCLVATTSFSGDLLFYRITREDETKKVIFEKLDLLDSDMKKHSFWALKWGASNDRLLSHRLVATDVKGTTYIWKFHPFADESNSLTLNWSPTLELQGTVESPMTPSQFATSVDISERGLIATGFNNGTVQISELSTLRPLYNFESQHSMINNSNSIRSVKFSPQGSLLAIAHDSNSFGCITLYETEFGERIGSLSVPTHSSQASLGEFAHSSWVMSLSFNDSGETLCSAGWDGKLRFWDVKTKERITTLNMHCDDIEIEEDILAVDEHGDSLAEPGVFDVKFLKKGWRSGMGADLNESLCCVCLDRSIRWFREAGGK	not soluble
MIFRKFLNFLKPYKMRTDPIIFVIGCTGTGKSDLGVAIAKKYGGEVISVDSMQFYKGLDIATNKITEEESEGIQHHMMSFLNPSESSSYNVHSFREVTLDLIKKIRARSKIPVIVGGTTYYAESVLYENNLIETNTSDDVDSKSRTSSESSSEDTEEGISNQELWDELKKIDEKSALLLHPNNRYRVQRALQIFRETGIRKSELVEKQKSDETVDLGGRLRFDNSLVIFMDATPEVLEERLDGRVDKMIKLGLKNELIEFYNEHAEYINHSKYGVMQCIGLKEFVPWLNLDPSERDTLNGDKLFKQGCDDVKLHTRQYARRQRRWYRSRLLKRSDGDRKMASTKMLDTSDKYRIISDGMDIVDQWMNGIDLFEDISTDTNPILKGSDANILLNCEICNISMTGKDNWQKHIDGKKHKHHAKQKKLAETRT	not soluble
MGSDKIHHHHHHENLYFQGMLNFTVGPVMSSEEVRAIGAEQVPYFRTTEFSSTMLENEKFMLEYAKAPEGSKAVFMTCSSTGSMEAVVMNCFTKKDKVLVIDGGSFGHRFVQLCEIHEIPYVALKLEHGKKLTKEKLYEYDNQNFTGLLVNVDETSTAVLYDTMMIGEFCKKNNMFFVCDCVSAFLADPFNMNECGADVMITGSQKVLACPPGISVIVLAPRGVERVEKSKVRTMYFDLKDALKNQERGQTPFTPAVGILLQINERLKEIKKHGGADAEVARIASQAADFRAKIKDLPFELVSESPANGVTSVHPTTANAYDIFLKLKDEYGIWICPNGGEMKDTIFRVGHIGALTHEDNTTLVNAFKDLQKRNLL	soluble
MGSDKIHHHHHHMMEKVTQMIAMLIKAWKKESVSQIDTPPVPATPEPKQQSPNNSACLTERVNTFLQTHYDFRYNRLTEETEFRPLSGAKTEFRPIGKRELNTLCMEAHAEGISCWDKDVSRYIYSTQIGEYHPFRLYMDELPPWDGIDRLTPLARRVSALPLWVKGFHTWMLGLAAQWEGKTGVHANSLAPILISAEQGRMKSTFCKSLMPKVLQRYYMDNLKLTSEGQAERLLSEMGLINLDEFDKYAESKMPLLKNLMQMSSLHVCKAYQRNFRDLPRIASFIGTSNRSDLMSDPTGSRRFFCVEVEKPINCEGIEHEQIFAQLKAELADGCPYWFDKETEREIQQNNAPFYRTCPAEEVFLSCFRTSASAEEKYLRLSAADIYKELKKRNAAALRGFNPNHFAQVLIKMGVERKHTEYGNVYLVVRR	not soluble
MGSDKIHHHHHHMVDDVFGNAIASATFRTHSDSLVVDSLATVDLTASAWPVFDIAASAINYPFLYADRDGTDLGALAVQQFDDVDQRLRTWMRGFVAGEPTDTLSLLKDISLGIASSISYQSREEEGTQAPLTTLDRGWGSCRDFAVLFAEAVRSLGFGARIVSGYLFNPNRALTGSTDSGSTHAWAEVFVPGAGWITLDPTNRSMGGANLIPVAVTRDIAHAVPVSGSFIGGSNGLPVNERGRRSQSNRPGLSGAAVERWIDVAQFSRCRAAPLVLNRPEPLTR	not soluble
MISLTQQVSAVRLDTHKSDTFEQNDLVLDNTGAVLSGSRDALIRRLVPTRDFCPDESYIFSLLVNIRTFISPHELMQKIVQYCMFAQNADSHNFAKEGRGRMFAHILRLCSEWATNIPYDFKTEYMRTRLNELLRLCAVDKTYQQKTTELQSTLRSSLNKLDRYEKAVANLQKALSENTNLPEQSDSMTGLFVLCNDAKTVAQQLTHIEMERFSMVGVDEIVQSLASDPLSEIGRHSKNKEGTISSISFYIEWFNRLSAFAAIEVLKQTKKRNRVAVFEFMIDIAKECCEIGNFNSMMAIVAGLSLPAVSRLKKTWCRVEKAKLEILQHQLDPSGNFLSYRATIKAAQWRADSARGNQQKIVIPFFVLLLKDLFLIYHGHPRILPNAHLNFMAFNQLAEQLRDVIQWKSTVCTFEKNPQVLQYLLITSVSGEKDSMLMSFECEPPESSSERDQHKKLKGGK	not soluble
AEVNDPRVGFVAVVTFPVDGPATQHKLVELATGGVQEWIREVPGFLSATYHASTDGTAVVNYAQWESEQAYRVNFGADPRSAELREALSSLPGLMGPPKAVFMTPRGAILPS	soluble
MFYPDPFDVIIIGGGHAGTEAAMAAARMGQQTLLLTHNIDTLGQMSCNPAIGGIGKGHLVKEVDALGGLMAKAIDQAGIQFRILNASKGPAVRATRAQADRVRYRQAVRTALENQPNLMIFQQAVEDLIVENDRVVGAVTQMGLKFRAKAVVLTVGTFLDGKIHIGLDNYSGGRAGDPPSIPLSRRLRELPLRVGRLKTGTPPRIDARTIDFSVLAQQHGDNPMPVFSFMGNASLHPQQVPCYITHTNEKTHDVIRSNLDRSPMYAGVIEGVGPRYCPSIEDKVMRFADRNQHQIFLEPEGLTSNEIYPNGISTSLPFDVQMQIVRSMQGMENAKIVRPGYAIEYDFFDPRDLKPTLESKFIQGLFFAGQINGTTGYEEAAAQGLLAGLNAARLSADKEGWAPARSQAYLGVLVDDLCTLGTKEPYRMFTSRAEYRLMLREDNADLRLTEIGRELGLVDDERWARFNEKLENIERERQRLKSTWVTPSAEAAAEVNAHLTAPLSREASGEDLLRRPEMTYEKLTTLTPFAPALTDEQAAEQVEIQVKYEGYIARQQDEIEKQLRNENTLLPATLDYRQISGLSNEVIAKLNDHKPASIGQASRISGVTPAAISILLVWLKKQGMLRRSA	not soluble
